Experiments:
[1] = substrate: CC(=O)OCC1=C(C(=O)O)N2C(=O)[C@@H](NC(=O)Cc3cccs3)[C@H]2SC1; experiment: (§1) Binding affinity for TEM-1 beta-lactamase; details: Escherichia coli
[2] = substrate: CC1(C)S[C@@H]2[C@H](NC(=O)Cc3ccccc3)C(=O)N2[C@H]1C(=O)O; experiment: as §1; details: Escherichia coli

B1: Beta-lactamase TEM (Escherichia coli), P62593 (protein)
chain: MSIQHFRVALIPFFAAFCLPVFAHPETLVKVKDAEDQLGARVGYIELDLNSGKILESFRPEERFPMMSTFKVLLCGAVLSRVDAGQEQLGRRIHYSQNDLVEYSPVTEKHLTDGMTVRELCSAAITMSDNTAANLLLTTIGGPKELTAFLHNMGDHVTRLDRWEPELNEAIPNDERDTTMPAAMATTLRKLLTGELLTLASRQQLIDWMEADKVAGPLLRSALPAGWFIADKSGAGERGSRGIIAALGPDGKPSRIVVIYTTGSQATMDERNRQIAEIGASLIKHW
Km [1]: 347 µM | Km [2]: 75 µM
